Entries after “also recorded” stand apart in the source; their conditions may differ.
Experiments:
C2C12 cells = assay: Morphological quantification of triangular polarized C2C12 cells; assay type: cell-based
From the text: Cell migration is typically accompanied by cytoskeletal polarization leading to a distinctive triangular cell shape.
Fzd7-YFP was expressed in myogenic cells and induced polarization by 130% (FIG. 1A and FIG. 9A). […] The majority of Fzd7-YFP localized to small intracellular vesicles associated with the tubulin cytoskeleton in C2C12 cells (FIG. 1B). By contrast, no such localization could be observed for YFP alone (FIG. 9B).
For myoblast culture, satellite cells were FACS purified as described (Bentzinger et al., 2013c) and plated on Collagen-coated dishes (BD Biosciences) in Ham's F10 medium supplemented with 20% FBS and 5 ng/mL of basic FGF (Millipore). C2C12 cells and human myoblasts were cultured as previously described (von Maltzahn et al., 2012). For in vitro morphology quantifications, Wnt7a was used at a concentration of 50 ng/mL.

mdx mice [1] = assay: Transplantation of Wnt-treated mouse primary myoblasts into mdx mice; assay type: in vivo; settings: 100,000 mouse primary myoblasts
Description: In a clinical setting, freshly isolated satellite cells are often not readily available. Therefore, the effect of 3 h Wnt7a loading on cultured primary mouse myoblasts that were subsequently transplanted into injured muscles of immunosuppressed mdx mice (FIG. S5 A) was examined. After transplantation of 100,000 cells, the number of dystrophin-expressing myofibers was increased by 72% in muscles that were injected with Wnt7a treated myoblasts (FIG. 13B). […] In addition, the mean maximal cluster distance (dispersion) increased from 1.5 mm for Veh., to 2.0 mm for Wnt7a (FIG. 13D).
(§1) Transplantation of zsGreen-expressing satellite cells or myoblasts into mdx mice was performed as previously described (Bentzinger et al., 2013c). Before transplantation the cells were treated for 3 h with Wnt7a, Wnt5a, or Wnt3a (R&D Systems) at a concentration of 50 ng/mL for freshly isolated satellite cells or with 100 ng/mL for cultured cells. Myoblasts expressing tdTomato were transplanted into uninjured muscles of C57BL/6 mice that were implanted with an osmotic pump (Alzet) delivering FK506 (Sigma) at 2.5 mg/kg/day 3 days prior to the transplantations. In some experiments, the injection site was marked with blue fluorescent microspheres (2 μm, Life Technologies) that were added at a concentration of 1:100 (vol/vol) to the cell suspension. 10 μl of the cell-microsphere suspension was injected into the TA of each mouse using a Hamilton syringe.
(§2) Muscles frozen in liquid nitrogen were cut into 12 μm cross-sections. Cross-sections and cells were either fixed with ethanol (100%) or 2% PFA for 5 min, permeabilized with 0.1% Triton/0.1 M glycine/PBS for 10 min, blocked with 5% horse serum in PBS for several hours, and incubated with specific primary antibody in blocking buffer overnight at 4° C. Samples were subsequently washed with PBS and stained with appropriate fluorescently labeled secondary antibodies for 1 h at room temperature. After washing with PBS, samples were mounted with Permafluor (Fisher). Antibodies were as follows: chicken anti-GFP (Abcam, ab13970), mouse anti-Pax7 (DSHB), mouse anti-Dystrophin (7A10, DSHB), mouse anti-Rac1 (05-389, Millipore), mouse anti-Tubulin (Sigma, T9026), rabbit anti-Dvl2 (3224, Cell Signaling), rabbit anti-zsGreen (Clontech, 632474), rabbit anti-Laminin (Sigma, L9393), rabbit anti-HA (Millipore, 07-221).

mouse primary myoblasts = assay: Scratch migration assay, mouse primary myoblasts; assay type: cell-based
Description: Cellular polarization is indicative of increased motility (de Forges et al., 2012). Scratch assays were used to test whether Wnt7a and Fzd7 polarization affect cell motility. To exclude effects on the localization of cells arising from altered rates of proliferation, cells were treated with Mitomycin-C.
Fzd7 deficient cells migrated 59% less compared to heterozygous myoblasts and expression of Fzd7-Flag in Fzd7 knockout myoblasts restored migration to normal levels (FIG. 2D). […] To investigate whether the stimulation of myoblast migration is dose dependent, different concentrations of Wnt7a and Wnt3a were tested for their effect on migration.
Following plasmid transfection or application of Wnts (R&D Systems), the cells were treated with Mitomycin-C for 2 h (50 μg/mL). Subsequently, the monolayer of cells was scraped in a straight line. The plates were then extensively washed with culture medium and incubated for 24 h before analysis. Analysis was performed using DAPI staining after matching the reference points and enumeration of DAPI-stained nuclei in the scar was performed. Unless otherwise indicated, Wnt7a and Wnt3a were used at a concentration of 100 ng/mL in scratch assays. Monodansylcadaverine (MDC, 30432, Sigma) was used in scratch assays at a concentration of 50 μm.

mdx mice [2] = assay: Transplantation of Wnt-treated satellite cells into TA of mdx mice; assay type: in vivo, mouse
Description: It is known that poor migration of myogenic cells upon intramuscular injection is a major hurdle for the development of cell based therapies for muscular dystrophy (Skuk et al., 2007). The present inventors tested whether satellite cells treated with Wnt7a ex vivo prior to transplantation would enhance engraftment. 10,000 satellite cells were isolated from Pax7-zsGreen mice by fluorescent activated cell sorting (Bosnakovski et al., 2008), treated with Wnt7a for 3 h; washed extensively; and transplanted into the TA of immunosuppressed dystrophin-deficient mdx mice that were injured with cardiotoxin 2 days before the procedure (FIG. 6A).
as §1, §2

[3] = test system: mdx extensor digitorum longus (EDL) muscles; assay: Muscle force measurement of mdx EDL muscles after satellite cell transplantation; assay type: in vivo, mouse; settings: 3,000 satellite cells treated ex vivo, compared to Veh.
From the text: Under normal conditions, a portion of transplanted satellite cells will differentiate and fuse to muscle myofibers. In mdx mice, this process can be tracked by staining for restored dystrophin expression in muscle fibers. […] Similar to the stimulatory effect of Wnt7a on myogenic cell migration in vitro, clusters of dystrophin-expressing myofibers in muscles that were transplanted with Wnt7a-treated cells were highly dispersed and on average located maximally 3.7 mm apart. By contrast, transplantation of untreated cells gave rise to clusters of dystrophin-expressing myofibers that were on maximally 2.2 mm apart on average (FIGS. 6F and 6G).
Extensor digitorum longus (EDL) muscles were isolated three weeks following transplantation and attached to an electrode and a force sensor (Aurora Scientific), and incubated at 25° C. in buffered physiological saline (Krebs-Ringer) supplemented with glucose and oxygen. Twitch force was determined following a single electrical stimulus, while maximal force was generated by electrical stimulation at 100 Hz for 500 ms. Thereafter, muscle length and weight were measured and specific muscle force was calculated ((maximal force×optimal fiber length×muscle density)/muscle mass).

B1: Wnt7a: non-canonical Wnt polypeptide (R&D Systems) used to treat or load myogenic cells (protein, UniProt O00755 32-349, looked up)
Protein Wnt-7a: LGASIICNKIPGLAPRQRAICQSRPDAIIVIGEGSQMGLDECQFQFRNGRWNCSALGERTVFGKELKVGSREAAFTYAIIAAGVAHAITAACTQGNLSDCGCDKEKQGQYHRDEGWKWGGCSADIRYGIGFAKVFVDAREIKQNARTLMNLHNNEAGRKILEENMKLECKCHGVSGSCTTKTCWTTLPQFRELGYVLKDKYNEAVHVEPVRASRNKRPTFLKIKKPLSYRKPMDTDLVYIEKSPNYCEEDPVTGSVGTQGRACNKTAPQASGCDLMCCGRGYNTHQYARVWQCNCKFHWCCYVKCNTCSERTEMYTCK
increase in the abundance of triangular polarized cells (C2C12 cells; C2C12 myoblasts, vs vehicle treated cells expressing YFP, Wnt7a 50 ng/mL): 111%
increase in cell polarization (C2C12 cells; Fzd7-YFP expressing C2C12 cells treated with Wnt7a): 167%
increase in number of dystrophin-expressing myofibers (mdx mice [1]; 3 h loading (100 ng/mL), immunosuppressed mdx mice): 72%
hypertrophy of dystrophin-expressing myofibers (mdx mice [1]; 3 h loading, mdx mice): 87%
mean maximal cluster distance (dispersion) (mdx mice [1]; 3 h loading, mdx mice): 2.0 mm
dose dependency of myoblast migration (mouse primary myoblasts; different concentrations tested, mouse primary myoblasts): relatively linear increases in cell migration
response of cell migration to Wnt7a in Fzd7 knockout myoblasts (mouse primary myoblasts; primary myoblasts from Fzd7−/− mice): do not respond; also recorded: no reaction
increase in cell migration (mouse primary myoblasts; satellite cell derived mouse primary myoblasts, Wnt 100 ng/mL, vs Veh. or empty vector): 136%
enhanced engraftment of zsGreen-expressing cells (mdx mice [2]; 10,000 satellite cells treated 3 h (50 ng/mL), mdx TA, after 3 weeks, vs Veh.): 69%
numbers of endogenous satellite cells (mdx mice [2]; Pax7+/zsGreen− cells in host mdx muscle, vs Veh.): not significantly changed; also recorded: not altered
hypertrophy of dystrophin-expressing myofibers (minimal feret) (mdx mice [2]; myofibers fused with Wnt7a treated satellite cells, mdx TA): 116%
proportion of zsGreen+ engrafted cells that express Ki67 (mdx mice [2]; satellite cells into mdx TA, vs Veh.): do not show more Ki67 staining; also recorded: did not alter
maximal distance between clusters of dystrophin-expressing myofibers (mdx mice [2]; satellite cells treated 3 h, mdx TA, average): 3.7 mm
increase in number of myofibers expressing dystrophin (mdx mice [2]; satellite cells treated 3 h, mdx TA, vs Veh.): 486%
increase in maximal specific force generation [3]: 18%
increase in twitch tension [3]: 30%
